Source: patent US20260274985A1 (MYTHIC THERAPEUTICS, published 2026)

Biological target: T1, Human TROP2 Protein, His Tag (Acro Biosystems) (human, UniProt P09758 27-274)
T1 construct: Bought antigen used at 50 nM in the Octet screen; also called TACSTD2; not shown: His tag
T1 sequence (looked up): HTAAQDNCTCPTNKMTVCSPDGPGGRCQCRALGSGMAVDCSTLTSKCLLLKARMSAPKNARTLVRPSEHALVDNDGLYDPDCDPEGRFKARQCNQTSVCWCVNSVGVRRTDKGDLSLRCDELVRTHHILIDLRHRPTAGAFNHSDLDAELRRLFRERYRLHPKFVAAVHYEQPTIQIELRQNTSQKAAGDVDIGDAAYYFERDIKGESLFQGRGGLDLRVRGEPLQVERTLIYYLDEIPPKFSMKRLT
Assay: BLI (Octet) [1/2]
Method: After allowing for four days of protein expression, cell culture supernatants were collected, quantified by SDS-PAGE analysis (DNS), and the pH dependence of the variant was evaluated using biolayer interferometry (BLI) on an Octet RED 96e instrument. Briefly, cell culture supernatants were diluted based on qualitative expression level of the variant determined by visual examination of SDS-PAGE gels, 5 μL of cell culture supernatant was diluted into 195 μL of 1×PBST, pH 7.4 for high expressors, 25 μL of cell culture supernatant was diluted into 175 μL of 1×PBST, pH 7.4 for medium expressors and 100 μL of cell culture supernatant was diluted into 100 μL of 1×PBST, pH 7.4 for low expressors for loading onto the sensor tips. The resulting diluted supernatants were then captured on an anti-human Fc sensor (Forte Bio). A baseline was established using 1×PBST (50 mM Potassium Phosphate Buffer+150 mM NaCl+0.05% Tween 20) pH 7.4, and the sensor was associated with 50 nM of TROP2 (Human TROP2 Protein, His Tag, Acro Biosystems) in 1×PBST pH 7.4 for 120 sec to generate an association curve. In the dissociation phase, the antibody-antigen complex on the sensor was exposed to 1×PBST pH 7.4 or pH 5.4, for 300 sec. Association and dissociation phase curves were examined for the starting ABPC antibody (with no substitutions) and each corresponding antibody variant at pH 5.4 and pH 7.4 to inform on two criteria: a) enhanced dissociation (i.e., higher koff values) at pH 5.4 due to histidine or alanine substitution compared to the starting ABPC, (with no substitutions), and b) reduced dissociation at pH 7.4 (i.e., lower koff values) compared to pH 5.4 in the antibody variant itself and with the starting ABPC (with no substitutions). […] It was also noted that while some mutations obliterated TROP2 binding, others were tolerated with little or n change in TROP2 binding kinetics.

B1: MYT11731 (antibody, V domains shown)
VH: QVQLQESGPGLVKPSETLSLTCTVSGGSISSYGVHWIRQPPGKGLEWIGVIWTSGVTDYNSALMGRVTISVDTSKNQFSLKLSSVTAADTAVYYCHRDGDYDRYTMDYWGQGTLVTVSS
VL: DIVMTQSPDSLAVSLGERATINCRASKSVSTSGYSYMHWYQQKPGQPPKLLIYLASNLESGVPDRFSGSGSGTDFTLTISSLQAEDVAVYYCQHSRELPYTFGQGTKLEIK
notes: hu7E6SVG variant, His at HCV position 96 (H3 01); screened as IgG in Expi293 supernatant
- binding result: no binding (tested: 50 nM)

B2: MYT11748 (antibody, V domains shown)
VH: QVQLQESGPGLVKPSETLSLTCTVSGGSISSYGVHWIRQPPGKGLEWIGVIWTSGVTDYNSALMGRVTISVDTSKNQFSLKLSSVTAADTAVYYCARDGDYDRYTMDYWGQGTLVTVSS
VL: DIVMTQSPDSLAVSLGERATINCRASKHVSTSGYSYMHWYQQKPGQPPKLLIYLASNLESGVPDRFSGSGSGTDFTLTISSLQAEDVAVYYCQHSRELPYTFGQGTKLEIK
notes: hu7E6SVG variant, His at LCV position 28 (L1 05); screened as IgG in Expi293 supernatant
- binding result: binds

B3: MYT11735 (antibody, V domains shown)
VH: QVQLQESGPGLVKPSETLSLTCTVSGGSISSYGVHWIRQPPGKGLEWIGVIWTSGVTDYNSALMGRVTISVDTSKNQFSLKLSSVTAADTAVYYCARDGHYDRYTMDYWGQGTLVTVSS
VL: DIVMTQSPDSLAVSLGERATINCRASKSVSTSGYSYMHWYQQKPGQPPKLLIYLASNLESGVPDRFSGSGSGTDFTLTISSLQAEDVAVYYCQHSRELPYTFGQGTKLEIK
notes: hu7E6SVG variant, His at HCV position 100 (H3 05); screened as IgG in Expi293 supernatant
- binding result: binds

B4: MYT11742 (antibody, V domains shown)
VH: QVQLQESGPGLVKPSETLSLTCTVSGGSISSYGVHWIRQPPGKGLEWIGVIWTSGVTDYNSALMGRVTISVDTSKNQFSLKLSSVTAADTAVYYCARDGDYDRYTMHYWGQGTLVTVSS
VL: DIVMTQSPDSLAVSLGERATINCRASKSVSTSGYSYMHWYQQKPGQPPKLLIYLASNLESGVPDRFSGSGSGTDFTLTISSLQAEDVAVYYCQHSRELPYTFGQGTKLEIK
notes: screened as IgG in Expi293 supernatant
- binding result: binds

B5: MYT11732 (antibody, V domains shown)
VH: QVQLQESGPGLVKPSETLSLTCTVSGGSISSYGVHWIRQPPGKGLEWIGVIWTSGVTDYNSALMGRVTISVDTSKNQFSLKLSSVTAADTAVYYCAHDGDYDRYTMDYWGQGTLVTVSS
VL: DIVMTQSPDSLAVSLGERATINCRASKSVSTSGYSYMHWYQQKPGQPPKLLIYLASNLESGVPDRFSGSGSGTDFTLTISSLQAEDVAVYYCQHSRELPYTFGQGTKLEIK
notes: hu7E6SVG variant, His at HCV position 97 (H3 02); screened as IgG in Expi293 supernatant
- binding result: binds

B6: MYT11733 (antibody, V domains shown)
VH: QVQLQESGPGLVKPSETLSLTCTVSGGSISSYGVHWIRQPPGKGLEWIGVIWTSGVTDYNSALMGRVTISVDTSKNQFSLKLSSVTAADTAVYYCARHGDYDRYTMDYWGQGTLVTVSS
VL: DIVMTQSPDSLAVSLGERATINCRASKSVSTSGYSYMHWYQQKPGQPPKLLIYLASNLESGVPDRFSGSGSGTDFTLTISSLQAEDVAVYYCQHSRELPYTFGQGTKLEIK
notes: hu7E6SVG variant, His at HCV position 98 (H3 03); screened as IgG in Expi293 supernatant
- binding result: no binding (tested: 50 nM)

B7: MYT11739 (antibody, V domains shown)
VH: QVQLQESGPGLVKPSETLSLTCTVSGGSISSYGVHWIRQPPGKGLEWIGVIWTSGVTDYNSALMGRVTISVDTSKNQFSLKLSSVTAADTAVYYCARDGDYDRHTMDYWGQGTLVTVSS
VL: DIVMTQSPDSLAVSLGERATINCRASKSVSTSGYSYMHWYQQKPGQPPKLLIYLASNLESGVPDRFSGSGSGTDFTLTISSLQAEDVAVYYCQHSRELPYTFGQGTKLEIK
notes: hu7E6SVG variant, His at HCV position 104 (H3 09); screened as IgG in Expi293 supernatant
- binding result: no binding (tested: 50 nM)

B8: MYT11740 (antibody, V domains shown)
VH: QVQLQESGPGLVKPSETLSLTCTVSGGSISSYGVHWIRQPPGKGLEWIGVIWTSGVTDYNSALMGRVTISVDTSKNQFSLKLSSVTAADTAVYYCARDGDYDRYHMDYWGQGTLVTVSS
VL: DIVMTQSPDSLAVSLGERATINCRASKSVSTSGYSYMHWYQQKPGQPPKLLIYLASNLESGVPDRFSGSGSGTDFTLTISSLQAEDVAVYYCQHSRELPYTFGQGTKLEIK
notes: as for B4
- binding result: no binding (tested: 50 nM)

B9: MYT11743 (antibody, V domains shown)
VH: QVQLQESGPGLVKPSETLSLTCTVSGGSISSYGVHWIRQPPGKGLEWIGVIWTSGVTDYNSALMGRVTISVDTSKNQFSLKLSSVTAADTAVYYCARDGDYDRYTMDHWGQGTLVTVSS
VL: DIVMTQSPDSLAVSLGERATINCRASKSVSTSGYSYMHWYQQKPGQPPKLLIYLASNLESGVPDRFSGSGSGTDFTLTISSLQAEDVAVYYCQHSRELPYTFGQGTKLEIK
notes: as for B4
- binding result: binds

B10: MYT11738 (antibody, V domains shown)
VH: QVQLQESGPGLVKPSETLSLTCTVSGGSISSYGVHWIRQPPGKGLEWIGVIWTSGVTDYNSALMGRVTISVDTSKNQFSLKLSSVTAADTAVYYCARDGDYDHYTMDYWGQGTLVTVSS
VL: DIVMTQSPDSLAVSLGERATINCRASKSVSTSGYSYMHWYQQKPGQPPKLLIYLASNLESGVPDRFSGSGSGTDFTLTISSLQAEDVAVYYCQHSRELPYTFGQGTKLEIK
- binding result: binds

B11: MYT11737 (antibody, V domains shown)
VH: QVQLQESGPGLVKPSETLSLTCTVSGGSISSYGVHWIRQPPGKGLEWIGVIWTSGVTDYNSALMGRVTISVDTSKNQFSLKLSSVTAADTAVYYCARDGDYHRYTMDYWGQGTLVTVSS
VL: DIVMTQSPDSLAVSLGERATINCRASKSVSTSGYSYMHWYQQKPGQPPKLLIYLASNLESGVPDRFSGSGSGTDFTLTISSLQAEDVAVYYCQHSRELPYTFGQGTKLEIK
notes: as for B4
- binding result: binds

B12: MYT11747 (antibody, V domains shown)
VH: QVQLQESGPGLVKPSETLSLTCTVSGGSISSYGVHWIRQPPGKGLEWIGVIWTSGVTDYNSALMGRVTISVDTSKNQFSLKLSSVTAADTAVYYCARDGDYDRYTMDYWGQGTLVTVSS
VL: DIVMTQSPDSLAVSLGERATINCRASHSVSTSGYSYMHWYQQKPGQPPKLLIYLASNLESGVPDRFSGSGSGTDFTLTISSLQAEDVAVYYCQHSRELPYTFGQGTKLEIK
notes: hu7E6SVG variant, His at LCV position 27 (L1 04); screened as IgG in Expi293 supernatant
- binding result: binds

B13: MYT11734 (antibody, V domains shown)
VH: QVQLQESGPGLVKPSETLSLTCTVSGGSISSYGVHWIRQPPGKGLEWIGVIWTSGVTDYNSALMGRVTISVDTSKNQFSLKLSSVTAADTAVYYCARDHDYDRYTMDYWGQGTLVTVSS
VL: DIVMTQSPDSLAVSLGERATINCRASKSVSTSGYSYMHWYQQKPGQPPKLLIYLASNLESGVPDRFSGSGSGTDFTLTISSLQAEDVAVYYCQHSRELPYTFGQGTKLEIK
notes: hu7E6SVG variant, His at HCV position 99 (H3 04); screened as IgG in Expi293 supernatant
- binding result: no binding (tested: 50 nM)

B14: MYT11744 (antibody, V domains shown)
VH: QVQLQESGPGLVKPSETLSLTCTVSGGSISSYGVHWIRQPPGKGLEWIGVIWTSGVTDYNSALMGRVTISVDTSKNQFSLKLSSVTAADTAVYYCARDGDYDRYTMDYWGQGTLVTVSS
VL: DIVMTQSPDSLAVSLGERATINCHASKSVSTSGYSYMHWYQQKPGQPPKLLIYLASNLESGVPDRFSGSGSGTDFTLTISSLQAEDVAVYYCQHSRELPYTFGQGTKLEIK
notes: hu7E6SVG variant, His at LCV position 24 (L1 01); screened as IgG in Expi293 supernatant
- binding result: binds

B15: MYT11736 (antibody, V domains shown)
VH: QVQLQESGPGLVKPSETLSLTCTVSGGSISSYGVHWIRQPPGKGLEWIGVIWTSGVTDYNSALMGRVTISVDTSKNQFSLKLSSVTAADTAVYYCARDGDHDRYTMDYWGQGTLVTVSS
VL: DIVMTQSPDSLAVSLGERATINCRASKSVSTSGYSYMHWYQQKPGQPPKLLIYLASNLESGVPDRFSGSGSGTDFTLTISSLQAEDVAVYYCQHSRELPYTFGQGTKLEIK
notes: hu7E6SVG variant, His at HCV position 101 (H3 06); screened as IgG in Expi293 supernatant
- binding result: no binding (tested: 50 nM)

B16: MYT11746 (antibody, V domains shown)
VH: QVQLQESGPGLVKPSETLSLTCTVSGGSISSYGVHWIRQPPGKGLEWIGVIWTSGVTDYNSALMGRVTISVDTSKNQFSLKLSSVTAADTAVYYCARDGDYDRYTMDYWGQGTLVTVSS
VL: DIVMTQSPDSLAVSLGERATINCRAHKSVSTSGYSYMHWYQQKPGQPPKLLIYLASNLESGVPDRFSGSGSGTDFTLTISSLQAEDVAVYYCQHSRELPYTFGQGTKLEIK
notes: hu7E6SVG variant, His at LCV position 26 (L1 03); screened as IgG in Expi293 supernatant
- binding result: binds

B17: MYT11745 (antibody, V domains shown)
VH: QVQLQESGPGLVKPSETLSLTCTVSGGSISSYGVHWIRQPPGKGLEWIGVIWTSGVTDYNSALMGRVTISVDTSKNQFSLKLSSVTAADTAVYYCARDGDYDRYTMDYWGQGTLVTVSS
VL: DIVMTQSPDSLAVSLGERATINCRHSKSVSTSGYSYMHWYQQKPGQPPKLLIYLASNLESGVPDRFSGSGSGTDFTLTISSLQAEDVAVYYCQHSRELPYTFGQGTKLEIK
notes: hu7E6SVG variant, His at LCV position 25 (L1 02); screened as IgG in Expi293 supernatant
- binding result: binds
